The assay addresses T1, bovine fetuin (type IV; Sigma Chemical Company) (bovine) (UniProt P12763).
T1 sequence: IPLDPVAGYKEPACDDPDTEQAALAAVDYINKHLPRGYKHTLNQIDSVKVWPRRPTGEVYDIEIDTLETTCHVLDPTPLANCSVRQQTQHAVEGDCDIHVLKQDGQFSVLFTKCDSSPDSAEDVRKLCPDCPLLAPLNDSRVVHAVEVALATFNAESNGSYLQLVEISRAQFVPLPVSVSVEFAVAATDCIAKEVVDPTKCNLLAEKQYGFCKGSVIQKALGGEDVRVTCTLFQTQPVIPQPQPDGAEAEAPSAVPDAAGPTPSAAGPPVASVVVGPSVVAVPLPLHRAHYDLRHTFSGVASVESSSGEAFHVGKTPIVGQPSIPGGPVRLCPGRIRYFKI

Among the data in patent US6110457 are Neuraminidase activity with Fetuin (optical density values values, retold here.

B1: hemagglutinin-neuraminidase protein, HN, of wild-type HPIV-3 (JS) (enzyme)
chain: MEYWKHTNHGKDAGNELETSMATHGNKLTNKIIYILWTIILVLLSIVFIIVLINSIKSEKAHESLLQDINNEFMEITEKIQMASDNTNDLIQSGVNTRLLTIQSHVQNYIPISLTQQMSDLRKFISEITIRNDNQEVLPQRITHDVGIKPLNPDDFWRCTSGLPSLMKTPKIRLMPGPGLLAMPTTVDGCVRTPSLVINDLIYAYTSNLITRGCQDIGKSYQVLQIGIITVNSDLVPDLNPRISHTFNINDNRKSCSLALLNTDVYQLCSTPKVDERSDYASSGIEDIVLDIVNYDGSISTTRFKNNNISFDQPYAALYPSVGPGIYYKGKIIFLGYGGLEHPINENVICNTTGCPGKTQRDCNQASHSPWFSDRRMVNSIIVVDKGLNSIPKLKVWTISMRQNYWGSEGRLLLLGNKIYIYTRSTSWHSKLQLGIIDITDYSDIRIKWTWHNVLSRPGNNECPWGHSCPDGCITGVYTDAYPLNPTGSIVSSVILDSQKSRVNPVITYSTATERVNELAILNRTLSAGYTTTSCITHYNKGYCFHIVEINHKSLNTFQPMLFKTEIPKSCS
For the molecule B1, the Neuraminidase activity with Fetuin (optical density values at 549nm) (optical density at 549nm) is 1.11.
